Read-outs that look alike come from different tables or passages of the source. Positions of bridges follow the written chain, without caps; N, C: chain ends. No end group written: not given here. *: point of attachment. kbt‑6‑CONH‑4‑piperidine = ketobenzothiazole-6-CONH-4-piperidine (Kbt-4-piperidinylamide), O=C(NC1CCNCC1)c1ccc2nc(*)sc2c1; kbt‑6‑CONH‑4‑pyridine = ketobenzothiazole-6-CONH-4-pyridine (Kbt-4-pyridinylamide), O=C(Nc1ccncc1)c1ccc2nc(*)sc2c1; kbt‑6‑CONH‑Bn = ketobenzothiazole-6-CONH-benzyl (Kbt-benzylamide), O=C(NCc1ccccc1)c1ccc2nc(*)sc2c1; kbt‑6‑COOH = ketobenzothiazole-6-COOH, O=C(O)c1ccc2nc(*)sc2c1; kbt = C-terminal ketobenzothiazole, c1ccc2sc(*)nc2c1; Kbt = ketobenzothiazole, c1ccc2sc(*)nc2c1; kt = C-terminal ketothiazole, c1csc(*)n1; Fmoc = O=C(OCC1c2ccccc2-c2ccccc21)*

For test [1], the target named is Recombinant human hepsin (4776-SE-010, R&D Systems), activated (human, UniProt P05981). The experiment in a line: fluorogenic inhibition assay. How it is done:
(§1) Inhibitors (11-pt serial dilutions, 0-20 μM final concentration in reaction) were serially diluted in DMSO (2% DMSO final concentration) and then mixed with either recombinant serine protease domain of HGFA [Z. Han, P. K. Harris, D. E. Jones, R. Chugani, T. Kim, M. Agarwal, W. Shen, S. A. Wildman, J. W. Janetka, Acs Med Chem Lett 2014, 5, 1219-1224], matriptase (Charles Craik, UCSF) or hepsin* (#4776-SE-010, R&D Systems, Minneapolis, Minn.) in black 384 well plates (Corning #3575. Corning, N.Y.). […] The final substrate concentrations for all assays were at the Kₘ for the respective enzymes. Changes in fluorescence (excitation at 380 nm and emission at 460 nm) were measured at room temperature over time in a Biotek Synergy 2 plate reader (Winnoski, Vt.). Using GraphPad Prism version 6.04 software program, (GraphPad Software, San Diego, Calif., www.graphpad.com), a four parameter curve fit was used to determine the inhibitor IC₅₀s from a plot of the mean reaction velocity versus the inhibitor concentration. The IC₅₀ values represent the average of three separate experimental determinations.
(§2) Fluorescent inhibitor and chromogenic proteolytic assays were performed in general accordance with the procedures described in Example 4 for compounds prepared in Examples 5 and 6.

For test [2], the target named is Hepatocyte Growth Factor Activator (HGFA) serine protease domain, N-terminal His-tag, recombinant (Homo sapiens (Human)) (UniProt Q04756). The test can be described thus: fluorogenic inhibition assay.
For the next test, the target named is Factor Xa. The test can be described thus: selectivity inhibition assay.
The next test concerns the target recombinant thrombin. The test can be described thus: selectivity inhibition assay.
A further test deals with Trypsin. The experiment in a line: selectivity inhibition assay.
In test [3] the target is T1, matriptase (Charles Craik, UCSF), recombinant (Homo sapiens (Human), UniProt Q9Y5Y6).
T1 sequence: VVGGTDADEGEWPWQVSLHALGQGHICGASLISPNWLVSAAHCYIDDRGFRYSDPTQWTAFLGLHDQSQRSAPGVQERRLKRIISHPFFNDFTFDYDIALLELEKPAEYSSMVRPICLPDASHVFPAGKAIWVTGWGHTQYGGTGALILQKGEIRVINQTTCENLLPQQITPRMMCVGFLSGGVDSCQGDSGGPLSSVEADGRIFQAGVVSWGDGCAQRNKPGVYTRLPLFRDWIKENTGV
The experiment in a line: fluorogenic inhibition assay. The procedure: as §1, §2

For test [4], the target named is T1, matriptase (Charles Craik, UCSF), …. The test can be described thus: fluorogenic inhibition assay. The procedure: as §1
The source holds these as a separate data set.

B1: H-RLR-kbt (peptide)
peptide: H-Arg-Leu-Arg-kbt
In the case of B1, the Ki in test [1] is 0.5 nM; in test [2], 83.1 nM; with Factor Xa, 56 nM; with recombinant thrombin, 8200 nM; with Trypsin it was 0.13 nM.

B2: Ac-KRLR(SEQ ID NO: 8)-Kbt (peptide)
peptide: Ac-KRLR-Kbt
SMILES: CC(=O)N[C@@H](CCCCN)C(=O)N[C@@H](CCCNC(=N)N)C(=O)N[C@@H](CC(C)C)C(=O)N[C@@H](CCCNC(=N)N)C(=O)c1nc2ccccc2s1
For the molecule B2, the inhibition constant (Ki) in test [3] is 0.54 nM; in test [1], 0.112 nM; in test [2] it was 6 nM; with Factor Xa, 91.9 nM; with recombinant thrombin, > 20000 nM; with Trypsin, 0.82 nM.

B3: Fmoc-LR-kbt (peptide)
peptide: Fmoc-Leu-Arg-kbt
With B3, the Ki in test [3] turned out to be 425 nM; in test [1], 115 nM; in test [2], 450 nM; with Factor Xa it was 410 nM; in the test with recombinant thrombin, 995 nM; with Trypsin, 19.8 nM.

B4: Ac-SKLR(SEQ ID NO: 10)-Kbt-Trp-NH2 (peptide)
peptide: Ac-SKLR
modifications: not fully specified (C-terminus)
B4: the Ki in test [3] was found to be 3.74 nM; in test [1], 0.098 nM; in test [2], 15.8 nM; with Factor Xa it was 163 nM; with recombinant thrombin it was 1230 nM; in the test with Trypsin it was 0.02 nM.

B5: Ac-SKLR(SEQ ID NO: 10)-Kbt-4-pyridinylamide (peptide)
peptide: Ac-SKLR-{kbt‑6‑CONH‑4‑pyridine}
In the case of B5, the Ki in test [3] was 3.95 nM; in test [1], 0.14 nM; in test [2], 31.8 nM; with Factor Xa it was 221 nM; in the test with recombinant thrombin, 3430 nM; with Trypsin, 1.06 nM.

B6: Ac-KRLR(SEQ ID NO: 8)-kbt-Benzyl-3-COOMe (peptide)
peptide: Ac-KRLR-{Kbt-Benzyl‑3‑COOMe}
On to B6, for which the Ki in test [3] came to 1.8 nM; in test [1], 0.36 nM; in test [2] it was 7.76 nM; in the test with Factor Xa it was 14 nM; with recombinant thrombin, 85.4 nM; with Trypsin, 0.04 nM.

B7: H-LLR-kbt-Val-NH2 (peptide)
peptide: H-Leu-Leu-Arg-{kbt-Val-NH2}
Consider B7, for which the inhibitory constant (Ki) in test [1] was 0.88 nM; in test [2], 82.1 nM; with Factor Xa it was 159 nM; with recombinant thrombin, 101 nM; with Trypsin it was 0.61 nM.

B8: Ac-SKLR(SEQ ID NO: 10)-Kbt-Val-NH2 (peptide)
peptide: Ac-SKLR-{kbt‑6‑CO-Val-NH2}
In the case of B8, the Ki is 10.3 nM in test [3]; 0.19 nM in test [1]; 13 nM in test [2]; 385 nM in the test with Factor Xa; 4500 nM with recombinant thrombin; 0.34 nM with Trypsin.

B9: Ac-SKLR(SEQ ID NO: 10)-Kbt-Phe-NH2 (peptide)
peptide: Ac-SKLR
modifications: not fully specified (C-terminus)
As for B9, the Ki worked out at 6.26 nM in test [3]; 0.14 nM in test [1]; 17.3 nM in test [2]; 544 nM with Factor Xa; 3640 nM in the test with recombinant thrombin; 0.27 nM in the test with Trypsin.

B10: Fmoc-FR-kbt (peptide)
peptide: Fmoc-Phe-Arg-kbt
As for B10, the Ki was 1280 nM in test [3]; 778 nM in test [1]; 964 nM in test [2]; 28.4 nM with Factor Xa; > 2000 nM with recombinant thrombin; 14.3 nM in the test with Trypsin.

B11: H-WRLR(SEQ ID NO: 9)-Kbt (peptide)
peptide: H-WRLR-kbt
SMILES: CC(C)C[C@H](NC(=O)[C@H](CCCNC(=N)N)NC(=O)[C@@H](N)Cc1c[nH]c2ccccc12)C(=O)N[C@@H](CCCNC(=N)N)C(=O)c1nc2ccccc2s1
As to B11, the Ki in test [3] is 3.79 nM; in test [1] it was 0.12 nM; in test [2], 8.75 nM; with Factor Xa, 2.4 nM; with recombinant thrombin, 4890 nM; with Trypsin it was 0.96 nM.

B12: H-WLR-kbt (peptide)
peptide: H-Trp-Leu-Arg-kbt
In the case of B12, the Ki in test [1] was determined as 1.52 nM; in test [2], 104 nM; with Factor Xa it was 532 nM; in the test with recombinant thrombin, 457 nM; with Trypsin, 0.05 nM.

B13: Ac-FLFR(SEQ ID NO: 19)-Kbt (peptide)
peptide: Ac-FLFR-Kbt
SMILES: CC(=O)N[C@@H](Cc1ccccc1)C(=O)N[C@@H](CC(C)C)C(=O)N[C@@H](Cc1ccccc1)C(=O)N[C@@H](CCCNC(=N)N)C(=O)c1nc2ccccc2s1
In the case of B13, the Ki in test [3] was 3.6 nM; in test [1], 1.44 nM; in test [2], 114 nM; with Factor Xa, 13.1 nM; with recombinant thrombin it was > 20000 nM; in the test with Trypsin, 0.27 nM.

B14: Ac-SKLR(SEQ ID NO: 10)-Kbt-4-piperidinylamide (peptide)
peptide: Ac-SKLR-{kbt‑6‑CONH‑4‑piperidine}
In the case of B14, the Ki was found to be 1.28 nM in test [3]; 0.2 nM in test [1]; 7.7 nM in test [2]; 447 nM with Factor Xa; 2950 nM with recombinant thrombin; 0.41 nM in the test with Trypsin.

B15: H-RLR-kbt-Val-NH2 (peptide)
peptide: H-Arg-Leu-Arg-{kbt-Val-NH2}
On to B15, for which the Ki in test [3] was found to be 4.2 nM; in test [1] it was 0.44 nM; in test [2], 12.5 nM; with Factor Xa, 18 nM; with recombinant thrombin it was 548 nM; with Trypsin, 0.31 nM.

B16: Ac-SKLR(SEQ ID NO: 10)-Kbt (peptide)
peptide: Ac-SKLR-kbt
SMILES: CC(=O)N[C@@H](CO)C(=O)N[C@@H](CCCCN)C(=O)N[C@@H](CC(C)C)C(=O)N[C@@H](CCCNC(=N)N)C(=O)c1nc2ccccc2s1
Turning to B16, the Ki was 3.05 nM in test [3]; 0.16 nM in test [1]; 33 nM in test [2]; 1900 nM in the test with Factor Xa; > 20000 nM with recombinant thrombin; 0.16 nM with Trypsin.

B17: Ac-SKLR(SEQ ID NO: 10)-Kbt-benzylamide (peptide)
peptide: Ac-SKLR-{kbt‑6‑CONH‑Bn}
In the case of B17, the Ki came to 0.36 nM in test [3]; 0.8 nM in test [1]; 9.1 nM in test [2]; 190 nM with Factor Xa; 2470 nM with recombinant thrombin; 0.05 nM in the test with Trypsin.

B18: Ac-KRLR(SEQ ID NO: 8)-kbt-Benzyl-4-COOMe (peptide)
peptide: Ac-KRLR-{Kbt-Benzyl‑4‑COOMe}
In the case of B18, the Ki in test [3] was 0.98 nM; in test [1], 0.26 nM; in test [2], 5.85 nM; with Factor Xa, 9 nM; with recombinant thrombin it was 20.9 nM; in the test with Trypsin, 0.05 nM.

B19: Ac-KRLR(SEQ ID NO: 8)-Kbt-5-COOH (peptide)
peptide: Ac-KRLR-Kbt
modifications: not fully specified
Take B19: the Ki in test [3] stood at 5.14 nM; in test [1], 0.37 nM; in test [2], 6.07 nM; with Factor Xa, 20.2 nM; in the test with recombinant thrombin, 1940 nM; with Trypsin it was 1.06 nM.

B20: H-WLR-kbt-Val-NH2 (peptide)
peptide: H-Trp-Leu-Arg-{kbt-Val-NH2}
Turning to B20, the Ki in test [3] worked out at 49.2 nM; in test [1], 1.31 nM; in test [2], 73.9 nM; with Factor Xa, 159 nM; with recombinant thrombin, 41 nM; with Trypsin it was 0.01 nM.

B21: H-cyclo(KQD)RR-kt (peptide)
peptide: H-KQDRR-kt
modifications: lactam 1-3; also: 3:1 D/L diastereomers at the alpha keto carbon
Consider B21, for which the Ki in test [2] came to 5940 nM; in test [4], 0.71 nM.

B22: Ac-SKLR(SEQ ID NO: 10)-Kbt-COOH (peptide)
peptide: Ac-SKLR-{kbt‑6‑COOH}
SMILES: CC(=O)N[C@@H](CO)C(=O)N[C@@H](CCCCN)C(=O)N[C@@H](CC(C)C)C(=O)N[C@@H](CCCNC(=N)N)C(=O)c1nc2ccc(C(=O)O)cc2s1
Turning to B22, the Ki is 54.8 nM in test [3]; 0.173 nM in test [1]; 132 nM in test [2]; 1250 nM with Factor Xa; > 2000 nM with recombinant thrombin; 0.03 nM in the test with Trypsin.

The values above are taken from patent US20180066015A1, “INHIBITORS OF GROWTH FACTOR ACTIVATION ENZYMES” (Washington University, published 2018).
